Test results published in US6426070.

T1: placental ribonuclease inhibitor (RI), P13489
T1 chain: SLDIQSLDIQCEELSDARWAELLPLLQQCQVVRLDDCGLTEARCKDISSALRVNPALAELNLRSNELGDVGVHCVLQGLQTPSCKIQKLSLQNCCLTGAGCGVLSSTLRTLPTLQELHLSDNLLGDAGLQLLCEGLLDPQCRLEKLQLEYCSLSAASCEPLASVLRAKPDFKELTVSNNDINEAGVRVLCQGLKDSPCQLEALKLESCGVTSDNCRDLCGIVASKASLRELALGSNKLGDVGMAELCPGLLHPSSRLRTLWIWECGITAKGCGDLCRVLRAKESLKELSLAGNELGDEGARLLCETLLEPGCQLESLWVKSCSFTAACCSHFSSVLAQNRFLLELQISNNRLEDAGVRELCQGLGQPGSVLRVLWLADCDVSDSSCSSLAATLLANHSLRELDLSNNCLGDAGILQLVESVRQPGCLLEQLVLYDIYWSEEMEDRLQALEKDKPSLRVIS


How the values were obtained:
[1] = target: recombinant human eosinophil cationic protein (rhECP), baculovirus-derived, C-terminal FLAG (human) (UniProt P12724); test: cell-based or functional assay
[2] = target: T1, placental ribonuclease inhibitor (RI), …

Row | Molecule | infectious units/ml RSV-B after 500 nM rhECP + 400U RI (500 nM rhECP alone: 660 +/- 28) (infectious units/ml) [1] | ribonuclease activity (pmol/min) at fixed enzyme (rhECP) and substrate (tRNA) concentrations with increasing concentrations of RI [2]
1 | placental ribonuclease inhibitor (RI) (from UniProt P13489 2-461) | 1690 | 
2 | recombinant human eosinophil cationic protein (rhECP), baculovirus-derived, C-terminal FLAG (protein) RPPQFTRAQWFAIQHISLNPPRCTIAMRAINNYRWRCKNQNTFLRTTFANVVNVCGNQSIRCPHNRTLNNCHRSRFRVPLLHCDLINPGAQNISNCTYADRPGRRFYVVACDNRDPRDSPRYPVVPVHLDTTIDYKDDDDK |  | These results demonstrate that rhECP is sensitive to the inhibitory effects of RI
